# Laboratory results from the domain aggregation screens of Martell et al. (2025).
# Experiment: soluble fraction after stress (log2 fold change); higher = more stays soluble; pooled small domains, quantitative proteomics
# Conditions: stress: pH 4
# Procedure, shortened: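 Pooled custom libraries of small protein domains were subjected to pH 4 and measured by high-throughput quantitative proteomics. The log2 fold change in soluble amount per domain is reported, higher values meaning more remained soluble. This is used as a measure of aggregation propensity.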
row,Sequence,soluble fraction (log2)
1,HMTSNIIIVPNVVGMTKEQATAALAAAGLNIKLSGVETTDTAAVAVKQKPSANTKVEEGSVVTVEFDLK,-1.35
2,HMNSKQELAYQTIRARIVDGSYGPGYRIVIDEVARELGVSPIPVREAVRRLEAEGLITYTRHAGARVVA,-0.273
3,HMGLVLIDSYNDIGSAKLITNKIRNLGLIFEENENKINVFAGPFEKNDINLKIDFLIRNGYTNAQLY,-1.92
4,HMPADHYEVLGIARDADAAEVKRAYRRLARESHPDANHGDSGAEVRFKAVSAAYEVLSDPERRARYDRFGH,-0.257
5,HMNNIGSKIKSAKILNNLDDNQLSEITGIDKLQLRSIQDGQVNPTKMELEIISKALKLPTNYFTK,0.154
6,HMHKPLRILVYEELRMLIMTGQIKPGTRMMEIDLAESMGVSRTPVREAIRQLEKDNLVTIEPRRGAYVSD,-0.761
7,HMAVEETFTITWLDRDGTVLEVDENVLKGTMPSFDGHIPPHDGLEFKGWDPEVVPVEGDATYTATYKA,-0.454
8,HMEDDIRSSIRTLDQFISKNQITLSKDVKNYILQLLSNDRMVTINELEKIKIYYDSNENIDLDTVKILLN,-1.4
9,HMGQYSTTLDKIENSLFGFTYSNEAENTRINRIENKVYGKTSTSQTSTRIAKLKKDLSVDEMG,-0.00491
10,HMKYRPGDVVTLRVARMGEMGAFLDAGTGNTNDDILLHKMQQTEEIKAGQDVKVYLYLDPNRRLTASMKL,-0.0269
11,HMKVYIKDISDLSDKLKSLLIENDIDDSNKLFEVEDQVLLEIKGLGSKTIDKIKDIVTEYLKKNN,-0.38
12,HMQVTEVDYGTFMKMVEEKNVGEVEVGNSMIVFTDKDGKAIYKTGAMNDPNLTERLYNAGASFTKE,-0.209
13,HMVDPRWETPDENLAEQIKSVMPVMWVYDREAKSFVERPAIDFSFSIFERTTLYIYDKDGNEIGFAR,0.0599
14,HMEPPAPAPDIPYPSRVTVRREVDGWPHYYGTWTRTPPVLGYEGIWLVGVSLDGKVQFVPVDDVTIA,-0.555
15,HMYPEETVNKILDVSMQLFLEKGYEHTSIQDIVNHLGGLSKGAIYHHFKSKEDILDGVMNKLYQNN,-0.941
16,HMKVSNWYFNGAPSATTPPTSQWTTEKDKKAHIGDTFTSLDKSPSPNAGKSWRYTPSYTWEEIV,0.0965
17,HMSIEIIEITSNSSPKNLSEIIDIDATQIVADLMGLGIMKAIDTPLENSEIEQLLEKYNLIAEFVE,-2.51
18,HMNMENIADKIGKIYESLPEDLKLMIKYRDIDDLTYDEIAVKADLPVGTVRSRLHRAREQLLKELEKN,-0.0554
19,HMRQIRELFRLKFGSLLPTSDRQIAAQLGVARSTVAEYLERARAAGLSWPLPLDLSDADLEERLFA,≥ 0.43
20,HMFSPTKLKEKRESQGLSQSQLASSLGISRASYFNWESGKTKPNQNNLSKLSEILNVDPRYF,0.0274
21,HMSDHYEVLGVDRNATDDQIKKAYRRLARELHPDVNDAPESQEKFKLVTHAYEVLSDPDERRKYDMG,0.056
22,HMSEQLHALIDRLDDIPDDELKKNWPGTLRDLVDVISAELHRQGIEPAQAGMLARKVAAAQAGYMG,-0.742
23,HMFPQQGEIRQGVIASITPDQILVNVGTKSEGIISGKELEAISKSERDSLNVDQKIAVYILDPEDSNG,-0.391
24,HMEPLIRTLEEQIAEKIKNYRKGTRVYDAEHVDRWISQLPEEERMVVLTETNRLLEQNYVDQAKLME,-0.803
25,HMTKIDYSINQIYSLRNIENITIVLKDKRSFTGKILKIYWQNGSKIILFTTETRNYKFKEYEISEIYKS,-0.706
26,HMPSDTNLIGKTGIAYTTLRPGGTALIDDRKVDVVADSEYIEKDKKIKVIRVEGIKVVVTAVK,0.194
27,HMSEKIDINNSNELELKQLPLTNEQIKSLIEFRRLHGEIQNIYELKNIDFFNIEKVHELKAHIEIKKII,-1.05
28,HMVPQEVLPITLIIDGKLIEENLLYAKMTEQVLIQQLDINNIKSIKQILFAGLDSFGNFFYQEKQN,-1.91

row,Sequence,soluble fraction (log2)
1,HMYKSSRASKSEVNKFLKFIIQSLDKRGFLQPGHKRQSMIRNIENIFYRTNLSDQEIRILLGIFSTLNK,-0.405
2,HMELDIGKKAIVIEKIDPEAGTGRVRIEGVDWGAKTADSSVIEKGETVVVKAKGAAFVTVAK,0.0671
3,HMAIGDYYINASALNVRSGEGTNYRIIGALPQGQKVQVISENSGWSKINYNGQTGYIGTRYLSKTPV,0.22
4,HMQDELSSSVIEEAVVVLLLRAANIDGKKDEQEIEAIKRLIIQQFNYDEEKADILITSASEK,-0.191
5,HMVQARDQNIEEGRQLVLRELDRLDLVNESLTDVAADMNMKSVEDMYAAIGAGDLRVGQVVHAVLKRAD,-0.218
6,HMGMETQLSPKEKSIYTIIQNRPNIQSGEVSEKLAIPLPTVKRILSDLINKGLIEKQGSGRNVSYTI,0.241
7,HMNADRIVGQTAKVIHPITPDEKGRVMVDNLDWAAAAQNRGESFEVGEEVSIVRIEGVTVYVQK,-0.57
8,HMQITDTEAIATTLDEIIAANPKEWERLKAGQEQLVKFFVGQVMRVTKGRANPQVVNDLLKERL,0.186
9,HMNNIIYLIANKLDVGKRLDQFITIRTEFSRQRVINLIEDGYVKLNNKIINLKKYKIKGDEKIEITIPEIR,-1.49
10,HMREYRITAEEGHPRIDVFLAGRPEIGLSRSRIQALIDEGQVTLNGAMPKARQAVNPGDVIVVRVPDPE,-0.336
11,HMKDMKISTKNLLQELAKNYPDQTSFRKNVIETTARAMGYTGKDFYPLLTTDNRVKIGTYDLATFLRSI,-0.122
12,HMNEKTGTLTVYSSPGWAKVYIDGEYKGITPVMANLTYGDHYVKLTLDGYDSIGNHIDVNSPDQSYTGKF,0.0783
13,HMLVYQRLDKDNFIFEGKTLLNDIYKILDIESNYFEAIRGEADSIAGLLLEIAKSIPTINTEF,-0.571
14,HMNVEKLREMYPEGTKIILQEMQGESRMAKGLKGTVTHVDDAGQIHMKWENGSSLVLNVEVDTFKKIE,-0.562
15,HMASVAKHIRRLRTERHMTQGDLAEKLFVTRQTVSAWETGKAQPDLETLERIAVVLGVEVTELIYGAP,-0.537
16,HMIHQPNNETTRNLIAGVVKKSLSVWETRVQVDGVDVTTAKDNLAEVHINIRYRLRHNQTPASLGLRLNLG,-0.15
17,HMGIDISAFSETALQVLRLQAAGYTAKEISEKLHITPRTVKYHASQNYRKLDAKNLVDAVQIAQALHI,-0.171
18,HMRVPTVIGMDEGTAKATLANASLKSNIVYESDETKENGKVLSQGIEQNKEVKAGTTVEIKVNKIE,0.22
19,HMRRELDSEHKRQEILFAAKRLLLAEGYDATSMSRLAKEAGVAPNTLYWYFKDKDELLIAILDELVAE,-1.09
20,HMDYLYHNGKEIDQGSIMYKMEDYSDGIFELQSAKYADGTELDEKELEELESTQELIDWVMIDFVS,-1.99
21,HMETIHEMVNRLSSEGFIKNEDGIWYLRDRRGDGTKWLKNPFFESTGEKDAFALIDHLKVNDELLSKLRK,-0.433
22,HMTISPYTKDDFLKGTKPFEDVYAHKADPFVHDRALEQMTIWAKSVGVNGFKKLYKAYIDSLRIKNKEI,0.00637
23,HMHKYQVGETVYYTSPTFGRAAATGSYIVVKLLPSEGDDYQYRIKSSGEAFERVAKESQLDR,0.11
24,HMEMLQRFIFLENVSSTQVESAIKELHPNLNLKRVKLSFPGADTVLLKGPKQDLELAEELIRHLDRSE,-0.609
25,HMQTPVTVGDTMPNLIGTPKRLLLELLNRTDITVKLTGDGYVTAQSPAAGTPIAKGMIIELSL,0.19
26,HMSETEEWTVEGGQAGDRIDRHVAAMLGDDVSRSQVQQWIRAGRVTVNGRAVKPSDTVEEGDRVAVDLPEP,-0.397
27,HMKNLNVIDLSALRTLELKESSDWTLIQKRFKLLVKKYHPDMNAGSKQYEEKLKKITLAYTHLKKLF,-0.715
